Data as given in patent US20120316071A1 (published 2012).

What was measured:
Recombinant Human DLL4 [1] = target: T1, Recombinant Human DLL4 (human, UniProt Q9NR61 27-524); test: ECL (MSD) 96-well plate assay; plate coated with 15 ug/mL DLL4; 0.004 uM Fab
T1 construct: Bought recombinant protein (R&D Systems Cat#1506-D4/CF); also called delta-like protein 4; Delta-like 4

Recombinant Human DLL4 [2] = target: T1, Recombinant Human DLL4; test: ECL (MSD) 96-well plate assay; plate coated with 30 ug/mL DLL4; 0.02 uM Fab
[3] = target: T2, Recombinant Human DLL4 (R&D Systems Cat#1506-D4/CF) (human, UniProt Q9NR61 27-524); test: ECL (Meso Scale Discovery) multispot binding assay, DLL4 immobilised, Fab at 100 nM
T2 construct: Bought recombinant protein; also called delta-like protein 4; Delta-like 4

Row | Binder | ECL signal (Recombinant Human DLL4 [1]) | Signal/Noise (Recombinant Human DLL4 [1]) | ECL signal (Recombinant Human DLL4 [2]) | Signal/Noise (Recombinant Human DLL4 [2]) | ECL signal [3]
1 | Fab VH1-46_IGHD6-6*01_IGHJ1*01 & L6_IGKJ1*01 (Fab, V domains shown, Tested as a Fab made in E. coli; VH was cloned into Plasmid A (CH1 constant region, His6 and Flag tags) and the kappa VL into Plasmid C (kappa CL); also called parent "Hit" Fab; parental) VH: QVQLVQSGAEVKKPGASVKVSCKASGYTFTSYYMHWVRQAPGQGLEWMGIINPSGGSTSYAQKFQGRVTMTRDTSTSTVYMELSSLRSEDTAVYYCAREEYSSSSAEYFQHWGQGTLVTVSS VL: not shown | 4260 | 29.2 | 8710 | 23 | –
2 | Fab VH1-46_IGHD6-6*01_IGHJ1*01 S102A & L6_IGKJ1*01 (Fab, V domains shown, Heavy chain CDR3 alanine mutant of the parent Fab; Fab format with CH1, kappa CL, His6 and Flag tags from the expression plasmids) VH: QVQLVQSGAEVKKPGASVKVSCKASGYTFTSYYMHWVRQAPGQGLEWMGIINPSGGSTSYAQKFQGRVTMTRDTSTSTVYMELSSLRSEDTAVYYCAREEYASSSAEYFQHWGQGTLVTVSS VL: not shown | 10300 | 70.8 | 19100 | 50.3 | –
3 | Fab VH1-46_IGHD6-6*01_IGHJ1*01 E100A & L6_IGKJ1*01 (Fab, V domains shown, Heavy chain CDR3 alanine mutant of the parent Fab; Fab format with CH1, kappa CL, His6 and Flag tags from the expression plasmids) VH: QVQLVQSGAEVKKPGASVKVSCKASGYTFTSYYMHWVRQAPGQGLEWMGIINPSGGSTSYAQKFQGRVTMTRDTSTSTVYMELSSLRSEDTAVYYCAREAYSSSSAEYFQHWGQGTLVTVSS VL: not shown | 536 | 3.7 | 1300 | 3.4 | –
4 | Fab VH1-46_IGHD6-6*01_IGHJ1*01 H111A & L6_IGKJ1*01 (Fab, V domains shown, Heavy chain CDR3 alanine mutant of the parent Fab; Fab format with CH1, kappa CL, His6 and Flag tags from the expression plasmids) VH: QVQLVQSGAEVKKPGASVKVSCKASGYTFTSYYMHWVRQAPGQGLEWMGIINPSGGSTSYAQKFQGRVTMTRDTSTSTVYMELSSLRSEDTAVYYCAREEYSSSSAEYFQAWGQGTLVTVSS VL: not shown | 5020 | 34.4 | 11600 | 30.6 | –
5 | Fab VH1-46_IGHD6-6*01_IGHJ1*01 S103A & L6_IGKJ1*01 (Fab, V domains shown, Heavy chain CDR3 alanine mutant of the parent Fab; Fab format with CH1, kappa CL, His6 and Flag tags from the expression plasmids) VH: QVQLVQSGAEVKKPGASVKVSCKASGYTFTSYYMHWVRQAPGQGLEWMGIINPSGGSTSYAQKFQGRVTMTRDTSTSTVYMELSSLRSEDTAVYYCAREEYSASSAEYFQHWGQGTLVTVSS VL: not shown | 5150 | 35.3 | 11600 | 30.5 | –
6 | Fab VH5-51_IGHD5-18*01>3_IGHJ4*01 G100K/G104T (H:KT) & V3-4_IGLJ1*01 G23A (Fab, V domains shown, Fab expressed in E. coli; Plasmid A adds CH1 with His6 and Flag tags to the heavy chain; Plasmid E adds lambda CL to the light chain; also called G100K/G104T & G23A) VH: EVQLVQSGAEVKKPGESLKISCKGSGYSFTSYWIGWVRQMPGKGLEWMGIIYPGDSDTRYSPSFQGQVTISADKSISTAYLQWSSLKASDTAMYYCARRKYSYTYDYFDYWGQGTLVTVSS VL: QTVVTQEPSFSVSPGGTVTLTCALSSGSVSTSYYPSWYQQTPGQAPRTLIYSTNTRSSGVPDRFSGSILGNKAALTITGAQADDESDYYCVLYMGSGISYVFGTGTKVTVL | – | – | – | – | 13500
7 | Fab VH5-51_IGHD5-18*01>3_IGHJ4*01 G100K/G104T (H:KT) & V3-4_IGLJ1*01 Y33A (Fab, V domains shown, Fab expressed in E. coli; Plasmid A adds CH1 with His6 and Flag tags to the heavy chain; Plasmid E adds lambda CL to the light chain; also called G100K/G104T & Y33A) VH: EVQLVQSGAEVKKPGESLKISCKGSGYSFTSYWIGWVRQMPGKGLEWMGIIYPGDSDTRYSPSFQGQVTISADKSISTAYLQWSSLKASDTAMYYCARRKYSYTYDYFDYWGQGTLVTVSS VL: QTVVTQEPSFSVSPGGTVTLTCGLSSGSVSTSAYPSWYQQTPGQAPRTLIYSTNTRSSGVPDRFSGSILGNKAALTITGAQADDESDYYCVLYMGSGISYVFGTGTKVTVL | – | – | – | – | 7700
8 | Fab VH5-51_IGHD5-18*01>3_IGHJ4*01 G100K/G104T (H:KT) & V3-4_IGLJ1*01 G27A (Fab, V domains shown, Fab expressed in E. coli; Plasmid A adds CH1 with His6 and Flag tags to the heavy chain; Plasmid E adds lambda CL to the light chain; also called G100K/G104T & G27A) VH: EVQLVQSGAEVKKPGESLKISCKGSGYSFTSYWIGWVRQMPGKGLEWMGIIYPGDSDTRYSPSFQGQVTISADKSISTAYLQWSSLKASDTAMYYCARRKYSYTYDYFDYWGQGTLVTVSS VL: QTVVTQEPSFSVSPGGTVTLTCGLSSASVSTSYYPSWYQQTPGQAPRTLIYSTNTRSSGVPDRFSGSILGNKAALTITGAQADDESDYYCVLYMGSGISYVFGTGTKVTVL | – | – | – | – | 10700
9 | Fab VH5-51_IGHD5-18*01>3_IGHJ4*01 G100K/G104T (H:KT) & V3-4_IGLJ1*01 V29A (Fab, V domains shown, Fab expressed in E. coli; Plasmid A adds CH1 with His6 and Flag tags to the heavy chain; Plasmid E adds lambda CL to the light chain; also called G100K/G104T & V29A) VH: EVQLVQSGAEVKKPGESLKISCKGSGYSFTSYWIGWVRQMPGKGLEWMGIIYPGDSDTRYSPSFQGQVTISADKSISTAYLQWSSLKASDTAMYYCARRKYSYTYDYFDYWGQGTLVTVSS VL: QTVVTQEPSFSVSPGGTVTLTCGLSSGSASTSYYPSWYQQTPGQAPRTLIYSTNTRSSGVPDRFSGSILGNKAALTITGAQADDESDYYCVLYMGSGISYVFGTGTKVTVL | – | – | – | – | 9320
10 | Fab VH5-51_IGHD5-18*01>3_IGHJ4*01 G100K/G104T (H:KT) & V3-4_IGLJ1*01 S26A (Fab, V domains shown, Fab expressed in E. coli; Plasmid A adds CH1 with His6 and Flag tags to the heavy chain; Plasmid E adds lambda CL to the light chain; also called G100K/G104T & S26A) VH: EVQLVQSGAEVKKPGESLKISCKGSGYSFTSYWIGWVRQMPGKGLEWMGIIYPGDSDTRYSPSFQGQVTISADKSISTAYLQWSSLKASDTAMYYCARRKYSYTYDYFDYWGQGTLVTVSS VL: QTVVTQEPSFSVSPGGTVTLTCGLSAGSVSTSYYPSWYQQTPGQAPRTLIYSTNTRSSGVPDRFSGSILGNKAALTITGAQADDESDYYCVLYMGSGISYVFGTGTKVTVL | – | – | – | – | 11700
